Patent US8840891 (RSR, dated 2014)

Key:
Test in all cases: cell-based or functional assay
[1] = target: human TSHR (wild type) expressed in CHO cells (human) (UniProt P16473)
[2] = target: TSHR with Glu107 mutated to Alanine expressed on CHO cells (human) (UniProt P16473)
[3] = target: TSHR Asp151Ala expressed in CHO cells (human) (UniProt P16473)
[4] = target: TSHR with activating mutation S281I expressed on CHO cells (human) (UniProt P16473)
[5] = target: wild type human TSHR (thyrotropin receptor) expressed on CHO cells (human) (UniProt P16473)
[6] = target: TSHR I568T (activating mutation) expressed in CHO cells (human) (UniProt P16473)
[7] = target: TSHR Lys183Ala expressed in CHO cells (human) (UniProt P16473)

B1: 5C9 IgG (human monoclonal autoantibody to the TSHR) (antibody, from another filing, V domains shown)
VH: EVQLVESGGGLIQPGGSLRLSCAASGFTVSSNYMSWVRQAPGKGLEWVSVTYSGGSTSYADSVKGRFTISRDNSKNTLYLQMNSLRAEDTAVYYCARGGRYCSSISCYARSGCDYWGQGTLVTVSS
VL: AIQMTQSPSSLSASVGDRVTITCRASQSISNYLNWYQQKPGKAPKLLIYAASSLQSGVPSRFSGSGSGTDFTLTISSLQPEDFATYYCQQSYSSPSTTFGQGTKLEIK
[1]
  cyclic AMP production; 5C9 IgG 10 µg/mL + pTSH 3 ng/mL (fmol/cell well): 1030
  cyclic AMP production; 5C9 IgG 10 µg/mL only (fmol/cell well): 360
  cyclic AMP production; 5C9 IgG 100 µg/mL + M22 Fab 3 ng/mL (fmol/cell well): 354
  cyclic AMP production; 5C9 IgG 100 µg/mL + pTSH 3 ng/mL (fmol/cell well): 1090
  cyclic AMP production; 5C9 IgG 100 µg/mL only (fmol/cell well): 426
  cyclic AMP; 5C9 IgG 0.01 µg/mL + pTSH (3 ng/mL) (fmol/cell well): 19000
  cyclic AMP; 5C9 IgG 0.02 µg/mL + pTSH (3 ng/mL) (fmol/cell well): 16400
  cyclic AMP; 5C9 IgG 0.04 µg/mL + pTSH (3 ng/mL) (fmol/cell well): 13900
  cyclic AMP; 5C9 IgG 0.06 µg/mL + pTSH (3 ng/mL); single determination (fmol/cell well): 13300
  cyclic AMP; 5C9 IgG 0.08 µg/mL + pTSH (3 ng/mL) (fmol/cell well): 14500
  cyclic AMP; 5C9 IgG 0.1 µg/mL + pTSH (3 ng/mL) (fmol/cell well): 11900
  cyclic AMP; 5C9 IgG 0.5 µg/mL + pTSH (3 ng/mL) (fmol/cell well): 4750
  cyclic AMP; 5C9 IgG 1 µg/mL + pTSH (3 ng/mL) (fmol/cell well): 2210
  cyclic AMP; 5C9 IgG only 1 µg/mL (fmol/cell well): 141
  cyclic AMP; Example 1; 5C9 IgG 10 µg/mL + TSH (fmol/cell well): 247
  cyclic AMP; Example 1; 5C9 IgG 100 µg/mL + TSH (fmol/cell well): 754
  cyclic AMP; Example 1; 5C9 IgG 100 µg/mL only (fmol/cell well): 237
  cyclic AMP; Example 2; 5C9 IgG 10 µg/mL + TSH (fmol/cell well): 723
  cyclic AMP; Example 2; 5C9 IgG 100 µg/mL + TSH (fmol/cell well): 1110
  cyclic AMP; Example 2; 5C9 IgG 100 µg/mL only (fmol/cell well): 338
  inhibition of cyclic AMP production stimulated by patient serum T3; 5C9 IgG 100 µg/mL: 50%
[2]
  Cyclic AMP produced; Experiment 1; 5C9 0.01 µg/mL + TSH (fmol/cell well): 15000
  Cyclic AMP produced; Experiment 1; 5C9 0.1 µg/mL + TSH (fmol/cell well): 5780
  Cyclic AMP produced; Experiment 1; 5C9 1.0 µg/mL + TSH (fmol/cell well): 394
  Cyclic AMP produced; Experiment 1; 5C9 10 µg/mL + TSH (fmol/cell well): 449
  Cyclic AMP produced; Experiment 1; 5C9 100 µg/mL + TSH (fmol/cell well): 203
  Cyclic AMP produced; Experiment 1; 5C9 100 µg/mL only (fmol/cell well): 462
  Cyclic AMP produced; Experiment 2; 5C9 0.01 µg/mL + TSH (fmol/cell well): 21000
  Cyclic AMP produced; Experiment 2; 5C9 0.1 µg/mL + TSH (fmol/cell well): 1540
  Cyclic AMP produced; Experiment 2; 5C9 1.0 µg/mL + TSH (fmol/cell well): 28
  Cyclic AMP produced; Experiment 2; 5C9 10 µg/mL + TSH (fmol/cell well): 321
  Cyclic AMP produced; Experiment 2; 5C9 100 µg/mL + TSH (fmol/cell well): 64
  Cyclic AMP produced; Experiment 2; 5C9 100 µg/mL only (fmol/cell well): 408
  Mutated/wild type (%); Experiment 1; 5C9 0.01 µg/mL + TSH: 88%
  Mutated/wild type (%); Experiment 1; 5C9 0.1 µg/mL + TSH: 97%
  Mutated/wild type (%); Experiment 1; 5C9 1.0 µg/mL + TSH: 37%
  Mutated/wild type (%); Experiment 1; 5C9 10 µg/mL + TSH: 91%
  Mutated/wild type (%); Experiment 1; 5C9 100 µg/mL + TSH: 105%
  Mutated/wild type (%); Experiment 1; 5C9 100 µg/mL only: 36%
  Mutated/wild type (%); Experiment 2; 5C9 0.01 µg/mL + TSH: 113%
  Mutated/wild type (%); Experiment 2; 5C9 0.1 µg/mL + TSH: 37%
  Mutated/wild type (%); Experiment 2; 5C9 1.0 µg/mL + TSH: 4%
  Mutated/wild type (%); Experiment 2; 5C9 10 µg/mL + TSH: 150%
  Mutated/wild type (%); Experiment 2; 5C9 100 µg/mL + TSH: 27%
  Mutated/wild type (%); Experiment 2; 5C9 100 µg/mL only: 193%
[3]
  % inhibition of TSH stimulation of cyclic AMP; 5C9 IgG 1 µg/mL: 49%
[4]
  Cyclic AMP concentration (basal) in the presence of 5C9 IgG (1 µg/mL) (fmol/cell well): 655
[5]
  Cyclic AMP concentration (basal) in the presence of 5C9 IgG (1 µg/mL) (fmol/cell well): 1870
  Cyclic AMP produced; 5C9 0.01 µg/mL + TSH (fmol/cell well): 13100
  Cyclic AMP produced; 5C9 0.1 µg/mL + TSH (fmol/cell well): 7810
  Cyclic AMP produced; 5C9 1.0 µg/mL + TSH (fmol/cell well): 2020
  Cyclic AMP produced; 5C9 10 µg/mL + TSH (fmol/cell well): 306
  Cyclic AMP produced; 5C9 100 µg/mL + TSH (fmol/cell well): 84
  Cyclic AMP produced; 5C9 100 µg/mL only (fmol/cell well): 47
  Cyclic AMP produced; Experiment 1; 5C9 0.01 µg/mL + TSH (fmol/cell well): 17000
  Cyclic AMP produced; Experiment 1; 5C9 0.1 µg/mL + TSH (fmol/cell well): 5950
  Cyclic AMP produced; Experiment 1; 5C9 1.0 µg/mL + TSH (fmol/cell well): 1060
  Cyclic AMP produced; Experiment 1; 5C9 10 µg/mL + TSH (fmol/cell well): 496
  Cyclic AMP produced; Experiment 1; 5C9 100 µg/mL + TSH (fmol/cell well): 193
  Cyclic AMP produced; Experiment 1; 5C9 100 µg/mL only (fmol/cell well): 1270
  Cyclic AMP produced; Experiment 2; 5C9 0.01 µg/mL + TSH (fmol/cell well): 18600
  Cyclic AMP produced; Experiment 2; 5C9 0.1 µg/mL + TSH (fmol/cell well): 4220
  Cyclic AMP produced; Experiment 2; 5C9 1.0 µg/mL + TSH (fmol/cell well): 738
  Cyclic AMP produced; Experiment 2; 5C9 10 µg/mL + TSH (fmol/cell well): 214
  Cyclic AMP produced; Experiment 2; 5C9 100 µg/mL + TSH (fmol/cell well): 238
  Cyclic AMP produced; Experiment 2; 5C9 100 µg/mL only (fmol/cell well): 211
[6]
  % inhibition of basal cyclic AMP activity; 5C9 IgG 1 µg/mL: 83%
[7]
  % inhibition of TSH stimulation of cyclic AMP; 5C9 IgG 1 µg/mL: 28%
  % inhibition of TSH stimulation of cyclic AMP; 5C9 IgG 100 µg/mL: 43%
